Assay results as given in US20200407442A1 (WUXI BIOLOGICS IRELAND, published 2020).

What was measured:
Variant 1: xPro1.FL-x1 = target: T1, Variant 1: xPro1.FL-x1 (human; mouse); assay: FACS, 1 ug/mL antibody, transfected 293F cells
T1 construct: Chimeric full-length LAG-3 on transfected 293F cells
T1 chain: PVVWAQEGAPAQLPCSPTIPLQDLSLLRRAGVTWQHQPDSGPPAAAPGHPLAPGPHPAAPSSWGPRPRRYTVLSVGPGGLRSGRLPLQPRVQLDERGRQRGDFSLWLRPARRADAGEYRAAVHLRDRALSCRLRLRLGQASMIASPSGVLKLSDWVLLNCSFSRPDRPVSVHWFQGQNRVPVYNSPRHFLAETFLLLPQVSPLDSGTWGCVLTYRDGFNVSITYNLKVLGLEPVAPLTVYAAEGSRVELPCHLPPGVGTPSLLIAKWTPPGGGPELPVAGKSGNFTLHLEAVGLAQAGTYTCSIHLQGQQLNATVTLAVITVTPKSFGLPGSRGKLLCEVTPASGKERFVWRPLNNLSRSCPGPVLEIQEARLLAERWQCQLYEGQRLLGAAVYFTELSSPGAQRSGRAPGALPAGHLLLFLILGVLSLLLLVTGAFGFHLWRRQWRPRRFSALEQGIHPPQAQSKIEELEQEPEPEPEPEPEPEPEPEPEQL
Experimental: (§1) The 10 variants were cloned into pcDNA3 vector and used for 293F cell transfection. Briefly, 293F cells were diluted to a density of 1×10⁶ cells/mL with FreeStyle 293F medium and aliquots of 3 mL/well were added to 24-well plate. Transfections were performed using 293fectin reagent (Life Technologies). For each transfection, 3 μg of DNA were diluted in 150 μOpti-MEM I-reduced serum medium (Life Technologies), and then combined with 6μL 293fectin reagent pre-diluted in 150 μL Opti-MEM I reduced serum medium. The DNA/[…] mixture was allowed to stand at 25° C. for 20 min before being added to the culture. The transfected cells were analyzed by flow cytometry at 48 h post-transfection.
(§2) Binding of antibodies to chimeric LAG-3 variants or full length human/mouse LAG-3 was analyzed by flow cytometry. Briefly, 1 μg/mL antibodies were incubated with chimeric LAG-3-expressing transfected 293F cells for 1 hour at 4° C., and then incubated with 3 μg/mL goat anti-human IgG Fc R-PE (Jackson) for 40 min at 4° C. Cells were analyzed with flow cytometer.

Variant 3: xPro1.FL-x3 = target: T2, Variant 3: xPro1.FL-x3 (human; mouse); assay: FACS, 1 ug/mL antibody, transfected 293F cells
T2 construct: Chimeric full-length LAG-3 on transfected 293F cells
T2 chain: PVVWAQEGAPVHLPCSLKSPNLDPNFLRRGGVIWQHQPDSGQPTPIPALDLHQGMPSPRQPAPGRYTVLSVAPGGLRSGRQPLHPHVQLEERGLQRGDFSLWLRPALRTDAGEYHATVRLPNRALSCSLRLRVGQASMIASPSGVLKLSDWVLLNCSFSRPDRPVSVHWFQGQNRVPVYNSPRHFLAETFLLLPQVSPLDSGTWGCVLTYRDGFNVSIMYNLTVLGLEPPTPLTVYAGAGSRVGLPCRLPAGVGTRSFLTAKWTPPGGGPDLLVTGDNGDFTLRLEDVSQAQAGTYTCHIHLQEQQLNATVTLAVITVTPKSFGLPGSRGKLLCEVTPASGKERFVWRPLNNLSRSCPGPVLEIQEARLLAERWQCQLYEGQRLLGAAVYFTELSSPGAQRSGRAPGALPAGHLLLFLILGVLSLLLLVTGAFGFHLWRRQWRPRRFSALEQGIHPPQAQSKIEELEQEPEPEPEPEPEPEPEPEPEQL
Experimental: as §1, §2

[1] = target: T3, full-length human LAG-3 on cells (human, UniProt P18627 23-525); assay: FACS competition on Flp-In-293 cells expressing human LAG-3: biotinylated BMK5 at 1 ug/mL, serially diluted antibody, Streptavidin-PE
T3 construct: Expressed on Flp-In-293, CHO or 293F transfectants; also called hPro1.FL; cell surface human LAG-3
T3 sequence: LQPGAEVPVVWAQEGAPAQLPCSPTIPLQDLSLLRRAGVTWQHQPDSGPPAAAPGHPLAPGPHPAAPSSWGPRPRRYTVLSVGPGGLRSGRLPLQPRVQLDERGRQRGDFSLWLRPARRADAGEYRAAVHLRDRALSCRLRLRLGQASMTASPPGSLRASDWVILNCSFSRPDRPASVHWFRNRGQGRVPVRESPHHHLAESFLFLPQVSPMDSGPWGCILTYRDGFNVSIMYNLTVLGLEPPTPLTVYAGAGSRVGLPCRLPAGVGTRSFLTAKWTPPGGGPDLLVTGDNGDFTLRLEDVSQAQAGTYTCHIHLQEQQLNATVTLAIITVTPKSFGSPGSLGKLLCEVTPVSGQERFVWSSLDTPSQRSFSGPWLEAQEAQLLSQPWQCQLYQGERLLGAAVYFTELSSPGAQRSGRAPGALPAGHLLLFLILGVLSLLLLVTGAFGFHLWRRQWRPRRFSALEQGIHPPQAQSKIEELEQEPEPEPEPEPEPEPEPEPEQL
Experimental: (§3) The binding epitope of LAG-3 antibodies was binned against benchmark antibodies BMK1, BMK7 and BMK5 by FACS assay. Flp-In-293 cells expressing human LAG-3 at the cell surface were incubated with biotinylated benchmark antibodies at concentration of 1 μg/mL for 1 hour, followed by the adding of serially diluted LAG-3 antibodies. Streptavidin-PE antibody (Jackson Immunoresearch Lab) was used to detect the binding of benchmark antibodies to cells. The MFI was evaluated by flow cytometry and analyzed by FlowJo.

[2] = target: T3, full-length human LAG-3 on cells; assay: FACS competition on Flp-In-293 cells expressing human LAG-3: biotinylated BMK7 at 1 ug/mL, serially diluted antibody, Streptavidin-PE
Experimental: as §3

- MFI (Variant 1: xPro1.FL-x1): 8580
- PE+ % (Variant 1: xPro1.FL-x1): 97%
- MFI (Variant 3: xPro1.FL-x3): 41.7
- PE+ % (Variant 3: xPro1.FL-x3): 2.03%
- IC50 (read off the curve) [1]: ~1 nM
- IC50 (read off the curve) [2]: ~3 nM
B1: 1.53.3-uAb-IgG4k (antibody, V domains shown)
VH: QVQLQQWGAGLLKPSETLSLTCGVYGGSFSGYYWSWIRQPPGMGLEWIGEINHRGNTNYNPSLKSRVTISEDTSKNQFSLRLSSVTAADTAVYFCTRGEDYSDYDYYGDFWGQGTLVTVSS
VL: EIVLTQSPATLSLSQGERATLSCRASQSISSYLAWYQQKPGQAPRLLIYAASNRATGIPARFSGSGSGTDFTLTISSLEPEDFAIYYCQQRSNWPLTFGGGTKVEIK
notes: Fully human antibody from OMT rats; IgG4 kappa by its name
